From patent US20250304643A1 (BAINAN BIOTECH, published 2025)
*1 amine or outer side, *2 acyl side, *3 side chain or, on linkers, in order; H or OH if unused. Where no end group is shown, it is not given here. Side-chain parts run from the residue outwards. [ ]: non-standard residue; d: D form. The star is where a group is joined. C16 diacid = O=C(O)CCCCCCCCCCCCCCC(=O)*; γGlu = O=C(O)[C@H](CCC(=O)[*:2])N[*:1]; Palmitoyl = CCCCCCCCCCCCCCCC(=O)*; Decanoyl = CCCCCCCCCC(=O)*; Aib = CC(C)(N)C(=O)O

Legend:
[1] = biological target: T1, human glucose-dependent insulinotropic polypeptide receptor (human, UniProt P48546 22-466); test: cell-based or functional assay
T1 sequence (looked up): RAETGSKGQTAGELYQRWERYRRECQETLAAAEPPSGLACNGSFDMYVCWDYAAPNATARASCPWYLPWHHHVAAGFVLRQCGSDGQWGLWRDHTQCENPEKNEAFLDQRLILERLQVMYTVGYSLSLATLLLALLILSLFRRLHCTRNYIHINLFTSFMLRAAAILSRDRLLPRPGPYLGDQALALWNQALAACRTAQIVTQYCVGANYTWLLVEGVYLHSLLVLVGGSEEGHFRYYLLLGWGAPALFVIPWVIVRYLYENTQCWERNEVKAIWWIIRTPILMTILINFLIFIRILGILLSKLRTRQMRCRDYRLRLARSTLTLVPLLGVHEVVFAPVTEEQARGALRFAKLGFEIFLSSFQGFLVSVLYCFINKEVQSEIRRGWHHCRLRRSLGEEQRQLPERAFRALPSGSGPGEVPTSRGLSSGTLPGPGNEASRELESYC

[2] = biological target: T2, human glucagon-like peptide-2 receptor (human, UniProt O95838 1-553); test: cell-based or functional assay
T2 sequence (looked up): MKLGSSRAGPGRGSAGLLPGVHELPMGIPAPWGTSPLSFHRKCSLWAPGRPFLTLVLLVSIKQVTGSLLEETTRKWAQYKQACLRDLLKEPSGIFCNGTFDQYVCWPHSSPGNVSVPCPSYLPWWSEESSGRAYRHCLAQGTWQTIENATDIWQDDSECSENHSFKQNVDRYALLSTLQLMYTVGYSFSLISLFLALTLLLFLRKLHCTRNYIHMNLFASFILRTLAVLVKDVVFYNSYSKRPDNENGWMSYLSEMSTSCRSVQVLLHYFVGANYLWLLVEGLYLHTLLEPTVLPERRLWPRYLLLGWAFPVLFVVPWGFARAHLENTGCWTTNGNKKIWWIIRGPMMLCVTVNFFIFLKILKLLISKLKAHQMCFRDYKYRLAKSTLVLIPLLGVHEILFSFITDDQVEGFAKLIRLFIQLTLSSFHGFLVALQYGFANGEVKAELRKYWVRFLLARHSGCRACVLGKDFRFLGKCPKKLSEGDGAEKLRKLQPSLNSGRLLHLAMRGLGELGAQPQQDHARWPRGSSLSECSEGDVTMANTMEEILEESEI

| Binder | Efficacy GIPR [1] | Efficacy GLP-2R [2] | logEC50 GLP-2R [2] |
| --- | --- | --- | --- |
| HXDGTFISDYKTILDNLAARDFINWLIQTKITK (Aib at 2; K(γGlu-C16) at 11; C-terminal -OH) [Compound no. 11] | 115% | 87% | – |
| H-H[Aib]DGTFK([γGlu-Palmitoyl])SDYSTILDNLAARDFINWLIQTKITK-OH (SMILES CCCCCCCCCCCCCCCC(=O)N[C@@H](CCC(=O)NCCCC[C@H](NC(=O)[C@H](Cc1ccccc1)NC(=O)[C@@H](NC(=O)CNC(=O)[C@H](CC(=O)O)NC(=O)C(C)(C)NC(=O)[C@@H](N)Cc1c[nH]cn1)[C@@H](C)O)C(=O)N[C@@H](CO)C(=O)N[C@@H](CC(=O)O)C(=O)N[C@@H](Cc1ccc(O)cc1)C(=O)N[C@@H](CO)C(=O)N[C@H](C(=O)N[C@H](C(=O)N[C@@H](CC(C)C)C(=O)N[C@@H](CC(=O)O)C(=O)N[C@@H](CC(N)=O)C(=O)N[C@@H](CC(C)C)C(=O)N[C@@H](C)C(=O)N[C@@H](C)C(=O)N[C@@H](CCCNC(=N)N)C(=O)N[C@@H](CC(=O)O)C(=O)N[C@@H](Cc1ccccc1)C(=O)N[C@H](C(=O)N[C@@H](CC(N)=O)C(=O)N[C@@H](Cc1c[nH]c2ccccc12)C(=O)N[C@@H](CC(C)C)C(=O)N[C@H](C(=O)N[C@@H](CCC(N)=O)C(=O)N[C@H](C(=O)N[C@@H](CCCCN)C(=O)N[C@H](C(=O)N[C@H](C(=O)N[C@@H](CCCCN)C(=O)O)[C@@H](C)O)[C@@H](C)CC)[C@@H](C)O)[C@@H](C)CC)[C@@H](C)CC)[C@@H](C)CC)[C@@H](C)O)C(=O)O) [Compound no. 10] | 102% | 23% | – |
| Palmitoyl-H[Aib]DGTFISDYST[Aib]LDNLAARDFINWLIQTKITK-OH (SMILES CCCCCCCCCCCCCCCC(=O)N[C@@H](Cc1c[nH]cn1)C(=O)NC(C)(C)C(=O)N[C@@H](CC(=O)O)C(=O)NCC(=O)N[C@H](C(=O)N[C@@H](Cc1ccccc1)C(=O)N[C@H](C(=O)N[C@@H](CO)C(=O)N[C@@H](CC(=O)O)C(=O)N[C@@H](Cc1ccc(O)cc1)C(=O)N[C@@H](CO)C(=O)N[C@H](C(=O)NC(C)(C)C(=O)N[C@@H](CC(C)C)C(=O)N[C@@H](CC(=O)O)C(=O)N[C@@H](CC(N)=O)C(=O)N[C@@H](CC(C)C)C(=O)N[C@@H](C)C(=O)N[C@@H](C)C(=O)N[C@@H](CCCNC(=N)N)C(=O)N[C@@H](CC(=O)O)C(=O)N[C@@H](Cc1ccccc1)C(=O)N[C@H](C(=O)N[C@@H](CC(N)=O)C(=O)N[C@@H](Cc1c[nH]c2ccccc12)C(=O)N[C@@H](CC(C)C)C(=O)N[C@H](C(=O)N[C@@H](CCC(N)=O)C(=O)N[C@H](C(=O)N[C@@H](CCCCN)C(=O)N[C@H](C(=O)N[C@H](C(=O)N[C@@H](CCCCN)C(=O)O)[C@@H](C)O)[C@@H](C)CC)[C@@H](C)O)[C@@H](C)CC)[C@@H](C)CC)[C@@H](C)O)[C@@H](C)CC)[C@@H](C)O) [Compound no. 5] | 111% | 109% | 9 |
| H-H[Aib]DGK([γGlu-Palmitoyl])FISDYSTILDNLAARDFINWLIQTKITK-OH (SMILES CCCCCCCCCCCCCCCC(=O)N[C@@H](CCC(=O)NCCCC[C@H](NC(=O)CNC(=O)[C@H](CC(=O)O)NC(=O)C(C)(C)NC(=O)[C@@H](N)Cc1c[nH]cn1)C(=O)N[C@@H](Cc1ccccc1)C(=O)N[C@H](C(=O)N[C@@H](CO)C(=O)N[C@@H](CC(=O)O)C(=O)N[C@@H](Cc1ccc(O)cc1)C(=O)N[C@@H](CO)C(=O)N[C@H](C(=O)N[C@H](C(=O)N[C@@H](CC(C)C)C(=O)N[C@@H](CC(=O)O)C(=O)N[C@@H](CC(N)=O)C(=O)N[C@@H](CC(C)C)C(=O)N[C@@H](C)C(=O)N[C@@H](C)C(=O)N[C@@H](CCCNC(=N)N)C(=O)N[C@@H](CC(=O)O)C(=O)N[C@@H](Cc1ccccc1)C(=O)N[C@H](C(=O)N[C@@H](CC(N)=O)C(=O)N[C@@H](Cc1c[nH]c2ccccc12)C(=O)N[C@@H](CC(C)C)C(=O)N[C@H](C(=O)N[C@@H](CCC(N)=O)C(=O)N[C@H](C(=O)N[C@@H](CCCCN)C(=O)N[C@H](C(=O)N[C@H](C(=O)N[C@@H](CCCCN)C(=O)O)[C@@H](C)O)[C@@H](C)CC)[C@@H](C)O)[C@@H](C)CC)[C@@H](C)CC)[C@@H](C)CC)[C@@H](C)O)[C@@H](C)CC)C(=O)O) [Compound no. 9] | 110% | 91% | – |
| Palmitoyl-H[Aib]DGTFISDYSTILD[Aib]LAARDFINWLIQTKITK-OH (SMILES CCCCCCCCCCCCCCCC(=O)N[C@@H](Cc1c[nH]cn1)C(=O)NC(C)(C)C(=O)N[C@@H](CC(=O)O)C(=O)NCC(=O)N[C@H](C(=O)N[C@@H](Cc1ccccc1)C(=O)N[C@H](C(=O)N[C@@H](CO)C(=O)N[C@@H](CC(=O)O)C(=O)N[C@@H](Cc1ccc(O)cc1)C(=O)N[C@@H](CO)C(=O)N[C@H](C(=O)N[C@H](C(=O)N[C@@H](CC(C)C)C(=O)N[C@@H](CC(=O)O)C(=O)NC(C)(C)C(=O)N[C@@H](CC(C)C)C(=O)N[C@@H](C)C(=O)N[C@@H](C)C(=O)N[C@@H](CCCNC(=N)N)C(=O)N[C@@H](CC(=O)O)C(=O)N[C@@H](Cc1ccccc1)C(=O)N[C@H](C(=O)N[C@@H](CC(N)=O)C(=O)N[C@@H](Cc1c[nH]c2ccccc12)C(=O)N[C@@H](CC(C)C)C(=O)N[C@H](C(=O)N[C@@H](CCC(N)=O)C(=O)N[C@H](C(=O)N[C@@H](CCCCN)C(=O)N[C@H](C(=O)N[C@H](C(=O)N[C@@H](CCCCN)C(=O)O)[C@@H](C)O)[C@@H](C)CC)[C@@H](C)O)[C@@H](C)CC)[C@@H](C)CC)[C@@H](C)CC)[C@@H](C)O)[C@@H](C)CC)[C@@H](C)O) [Compound no. 6] | 108% | 91% | – |

Next, values leading:

| Efficacy GIPR [1] | Efficacy GLP-2R [2] | logEC50 GLP-2R [2] | Binder |
| --- | --- | --- | --- |
| 95% | 95% | – | H-H[Aib]DGTFISDYSTILK([γGlu-Palmitoyl])NLAARDFINWLIQTKITK-OH (SMILES CCCCCCCCCCCCCCCC(=O)N[C@@H](CCC(=O)NCCCC[C@H](NC(=O)[C@H](CC(C)C)NC(=O)[C@@H](NC(=O)[C@@H](NC(=O)[C@H](CO)NC(=O)[C@H](Cc1ccc(O)cc1)NC(=O)[C@H](CC(=O)O)NC(=O)[C@H](CO)NC(=O)[C@@H](NC(=O)[C@H](Cc1ccccc1)NC(=O)[C@@H](NC(=O)CNC(=O)[C@H](CC(=O)O)NC(=O)C(C)(C)NC(=O)[C@@H](N)Cc1c[nH]cn1)[C@@H](C)O)[C@@H](C)CC)[C@@H](C)O)[C@@H](C)CC)C(=O)N[C@@H](CC(N)=O)C(=O)N[C@@H](CC(C)C)C(=O)N[C@@H](C)C(=O)N[C@@H](C)C(=O)N[C@@H](CCCNC(=N)N)C(=O)N[C@@H](CC(=O)O)C(=O)N[C@@H](Cc1ccccc1)C(=O)N[C@H](C(=O)N[C@@H](CC(N)=O)C(=O)N[C@@H](Cc1c[nH]c2ccccc12)C(=O)N[C@@H](CC(C)C)C(=O)N[C@H](C(=O)N[C@@H](CCC(N)=O)C(=O)N[C@H](C(=O)N[C@@H](CCCCN)C(=O)N[C@H](C(=O)N[C@H](C(=O)N[C@@H](CCCCN)C(=O)O)[C@@H](C)O)[C@@H](C)CC)[C@@H](C)O)[C@@H](C)CC)[C@@H](C)CC)C(=O)O) [Compound no. 13] |
| 101% | 114% | – | H-H[Aib]DGTFISDYK([γGlu-Palmitoyl])TILDNLAARDFINWLIQTKGKKNDWKHNITQ-NH2 [Compound no. 14] |
| – | 81% | – | H[Aib]DGTFISDYK([γGlu-Decanoyl])T[Aib]LDNLAARDFINWLIQTKITD-OH (N-terminus assumed; SMILES CCCCCCCCCC(=O)N[C@@H](CCC(=O)NCCCC[C@H](NC(=O)[C@H](Cc1ccc(O)cc1)NC(=O)[C@H](CC(=O)O)NC(=O)[C@H](CO)NC(=O)[C@@H](NC(=O)[C@H](Cc1ccccc1)NC(=O)[C@@H](NC(=O)CNC(=O)[C@H](CC(=O)O)NC(=O)C(C)(C)NC(=O)[C@@H](N)Cc1c[nH]cn1)[C@@H](C)O)[C@@H](C)CC)C(=O)N[C@H](C(=O)NC(C)(C)C(=O)N[C@@H](CC(C)C)C(=O)N[C@@H](CC(=O)O)C(=O)N[C@@H](CC(N)=O)C(=O)N[C@@H](CC(C)C)C(=O)N[C@@H](C)C(=O)N[C@@H](C)C(=O)N[C@@H](CCCNC(=N)N)C(=O)N[C@@H](CC(=O)O)C(=O)N[C@@H](Cc1ccccc1)C(=O)N[C@H](C(=O)N[C@@H](CC(N)=O)C(=O)N[C@@H](Cc1c[nH]c2ccccc12)C(=O)N[C@@H](CC(C)C)C(=O)N[C@H](C(=O)N[C@@H](CCC(N)=O)C(=O)N[C@H](C(=O)N[C@@H](CCCCN)C(=O)N[C@H](C(=O)N[C@H](C(=O)N[C@@H](CC(=O)O)C(=O)O)[C@@H](C)O)[C@@H](C)CC)[C@@H](C)O)[C@@H](C)CC)[C@@H](C)CC)[C@@H](C)O)C(=O)O) [Compound no. 30] |
| – | 73% | – | {C16 diacid}-H[Aib]EGTFISDYST[Aib]LDNLAAKDFINWLIQTKITKNDWKHNITQ-OH [Compound no. 43] |
